Measured values from paper PMC4836915 (Journal of cystic fibrosis : official journal of the …, 2015).

Biological target: T1, recombinant Porin D (P. aeruginosa PAO1, UniProt P32722 24-443)
T1 sequence: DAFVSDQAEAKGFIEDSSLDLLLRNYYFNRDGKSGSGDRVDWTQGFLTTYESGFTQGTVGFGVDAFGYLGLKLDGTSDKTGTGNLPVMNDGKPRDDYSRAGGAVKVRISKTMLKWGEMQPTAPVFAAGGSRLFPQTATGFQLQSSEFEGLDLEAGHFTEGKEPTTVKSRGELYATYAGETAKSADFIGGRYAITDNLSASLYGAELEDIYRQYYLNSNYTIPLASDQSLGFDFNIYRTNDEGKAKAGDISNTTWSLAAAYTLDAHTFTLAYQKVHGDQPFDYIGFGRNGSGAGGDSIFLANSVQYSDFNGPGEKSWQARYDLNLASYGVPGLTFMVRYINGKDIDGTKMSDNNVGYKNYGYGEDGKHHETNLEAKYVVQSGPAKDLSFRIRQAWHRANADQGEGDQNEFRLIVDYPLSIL
Experiment: BLI

B1: recombinant vitronectin aa 80-396 (domain or fragment, human, UniProt P04004 80-396, looked up)
chain: DGEEKNNATVHEQVGGPSLTSDLQAQSKGNPEQTPVLKPEEEAPAPEVGASKPEGIDSRPETLHPGRPQPPAEEELCSGKPFDAFTDLKNGSLFAFRGQYCYELDEKAVRPGYPKLIRDVWGIEGPIDAAFTRINCQGKTYLFKGSQYWRFEDGVLDPDYPRNISDGFDGIPDNVDAALALPAHSYSGRERVYFFKGKQYWEYQFQHQPSQEECEGSSLSAVFEHFAMMQRDSWEDIFELLFWGRTSAGTRQPQFISRDWHGVPGQVDAAMAGRIYISGMAPRPSLAKKQRFRHRNRKGYRSQRGHSRGRNQNSRRP
Kd: 3.6 nM
